Laboratory results taken from patent US20180022822A1, “NOVEL ANTI-FIBROBLAST ACTIVATION PROTEIN (FAP) BINDING AGENTS AND USES THEREOF” (Mabimmune Diagnostics AG, priority 2016, published 2018).

Assays:
[1] = target: T1, BSA (Bos taurus, UniProt P02769); test: ELISA control binding to BSA; parameters: species or system bovine
T1 construct: purchased Sigma-Aldrich
Procedure: (§1) ELISA assays were performed with varying antibody concentrations to validate the binding of the exemplary antibodies of the present invention to FAP and to be able to determine their half maximal effective concentration (EC50). For the exemplary recombinant human NI-206-18H2, NI-206-20A8, NI-206-6D3, ‘NI-206-14C5, NI-206-34C11, NI-206.82C2, NI-206.59B4, NI-206.22F7, NI-206.27E8, NI-206.12G4 and NI-206.17A6 antibodies, 96-well microplates (Costar, Corning, USA) were coated with FAP, with a mixture of the 3 peptides or with BSA (Sigma-Aldrich, Buchs, Switzerland) diluted to a concentration of 5 μg/ml in carbonate ELISA coating buffer (15 mM Na2CO3, 35 mM NaHCO3, pH 9.4) for the direct ELISA. For the capture ELISA, the microplates were coated with mouse anti-His monoclonal antibody (Clontech) diluted to a concentration of 3 μg/ml in PBS, the plates were then blocked, FAP or BSA were diluted to a concentration of 2 μg/ml in PBS and added to the plates to be captured. The binding efficiency of the antibodies was then tested.

[2] = target: T2, captured FAP (sFAP) (Homo sapiens, UniProt Q12884); test: capture ELISA, FAP captured via his-tag with coated anti-His antibody; format: binding; settings: ELISA, varying antibody concentrations
T2 sequence (Q12884 1-760): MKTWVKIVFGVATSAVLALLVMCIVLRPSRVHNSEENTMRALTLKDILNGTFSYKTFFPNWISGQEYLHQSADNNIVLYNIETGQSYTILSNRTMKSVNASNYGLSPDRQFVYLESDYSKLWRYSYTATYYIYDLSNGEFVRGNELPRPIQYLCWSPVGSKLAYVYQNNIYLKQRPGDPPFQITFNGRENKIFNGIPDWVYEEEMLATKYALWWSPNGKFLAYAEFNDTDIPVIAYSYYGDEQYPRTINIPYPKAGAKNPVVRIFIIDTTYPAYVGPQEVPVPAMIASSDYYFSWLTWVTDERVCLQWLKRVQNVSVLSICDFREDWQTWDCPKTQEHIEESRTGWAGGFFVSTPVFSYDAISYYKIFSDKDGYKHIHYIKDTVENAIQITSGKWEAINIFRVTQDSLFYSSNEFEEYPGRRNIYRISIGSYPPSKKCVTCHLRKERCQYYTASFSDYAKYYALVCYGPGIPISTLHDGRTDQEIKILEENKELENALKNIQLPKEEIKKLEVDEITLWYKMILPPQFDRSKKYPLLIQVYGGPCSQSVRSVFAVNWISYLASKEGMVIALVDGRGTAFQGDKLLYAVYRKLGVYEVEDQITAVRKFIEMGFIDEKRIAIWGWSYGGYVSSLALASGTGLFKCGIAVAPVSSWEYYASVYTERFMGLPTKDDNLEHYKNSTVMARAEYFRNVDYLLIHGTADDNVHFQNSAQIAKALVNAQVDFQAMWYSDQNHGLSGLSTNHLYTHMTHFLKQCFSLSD
Procedure: as §1
(§2) The EC50 values were estimated by a non-linear regression using GraphPad Prism (San Diego, USA) software. […] The binding of NI-206.12G4 towards sFAP was not tested.

[3] = tested on: directly coated FAP peptides mixture (cFAP); test: direct ELISA on coated mixture of FAP peptides; format: binding, human; settings: peptides 378-392, 622-636, 721-736
Procedure: as §1, §2

[4] = target: T3, recombinant human FAP (sFAP, FAP) versus CD26 and unrelated human antigens (A-N) (Homo sapiens, UniProt Q12884); test: binding specificity ELISA against FAP versus unrelated human antigens; settings: detection antibody at 20, 4 and 0.8 nM
T3 sequence (Q12884 26-760 limits assumed): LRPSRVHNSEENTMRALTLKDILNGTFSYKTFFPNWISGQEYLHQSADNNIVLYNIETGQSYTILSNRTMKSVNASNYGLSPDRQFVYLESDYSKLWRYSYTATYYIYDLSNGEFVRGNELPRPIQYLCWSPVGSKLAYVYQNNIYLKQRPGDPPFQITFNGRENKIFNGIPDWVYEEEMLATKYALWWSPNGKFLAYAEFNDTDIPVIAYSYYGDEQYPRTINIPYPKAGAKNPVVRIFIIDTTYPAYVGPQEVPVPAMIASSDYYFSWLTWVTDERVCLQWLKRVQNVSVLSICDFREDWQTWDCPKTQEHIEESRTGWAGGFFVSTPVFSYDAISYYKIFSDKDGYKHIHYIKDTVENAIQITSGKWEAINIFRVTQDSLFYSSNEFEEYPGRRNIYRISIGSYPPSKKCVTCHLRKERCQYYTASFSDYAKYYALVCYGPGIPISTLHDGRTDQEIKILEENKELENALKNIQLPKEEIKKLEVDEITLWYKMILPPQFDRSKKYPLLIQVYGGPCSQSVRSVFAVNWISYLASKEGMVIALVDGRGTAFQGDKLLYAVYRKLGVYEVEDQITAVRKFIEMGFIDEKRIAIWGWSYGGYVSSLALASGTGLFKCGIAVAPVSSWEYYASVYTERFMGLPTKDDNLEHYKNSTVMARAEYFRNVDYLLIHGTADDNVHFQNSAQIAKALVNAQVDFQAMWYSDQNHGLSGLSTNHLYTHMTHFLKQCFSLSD
Procedure: A mouse anti-6×-histidine tag antibody (Clonetech) was coated at a concentration of 3 μg/ml in PBS to a 96 well ELISA plate, the plates were then blocked with 5% BSA in PBS, and enzymatically active recombinant human FAP with an N-terminus 6× histidine tag was added to the plates to be captured. The binding efficiency of NI-206.82C2, NI-206.18H2, NI-206.20A8 and NI-206.6D3 (at 20 nM, 4 nM, and 0.8 nM) against sFAP and of NI-206.18H2, NI-206.20A8 and NI-206.6D3 against FAP as well was then tested by 1 hour incubation, followed by washing with PBS and detection with an HRP-labelled goat anti-human antibody (Jackson Immunoresearch) using a colormetric assay. To assess NI-206.82C2, NI-206.18H2, NI-206.20A8 and NI-206.6D3 binding other targets, recombinant human CD26 (only in case of NI-206.82C2) and fourteen other unrelated recombinant human proteins (A-N) were individually added to a 96-well ELISA plate in triplicate, and the binding efficacy of NI-206.82C2 was evaluated. (FIG. 7A to D)

[5] = target: T4, directly coated FAP (FAP) (Homo sapiens, UniProt Q12884); test: direct ELISA on directly coated FAP; format: binding; settings: ELISA, varying antibody concentrations
T4 sequence (Q12884 1-760): T2 sequence (Q12884 1-760)
Procedure: as §1, §2

T1 sequence (P02769 25-607): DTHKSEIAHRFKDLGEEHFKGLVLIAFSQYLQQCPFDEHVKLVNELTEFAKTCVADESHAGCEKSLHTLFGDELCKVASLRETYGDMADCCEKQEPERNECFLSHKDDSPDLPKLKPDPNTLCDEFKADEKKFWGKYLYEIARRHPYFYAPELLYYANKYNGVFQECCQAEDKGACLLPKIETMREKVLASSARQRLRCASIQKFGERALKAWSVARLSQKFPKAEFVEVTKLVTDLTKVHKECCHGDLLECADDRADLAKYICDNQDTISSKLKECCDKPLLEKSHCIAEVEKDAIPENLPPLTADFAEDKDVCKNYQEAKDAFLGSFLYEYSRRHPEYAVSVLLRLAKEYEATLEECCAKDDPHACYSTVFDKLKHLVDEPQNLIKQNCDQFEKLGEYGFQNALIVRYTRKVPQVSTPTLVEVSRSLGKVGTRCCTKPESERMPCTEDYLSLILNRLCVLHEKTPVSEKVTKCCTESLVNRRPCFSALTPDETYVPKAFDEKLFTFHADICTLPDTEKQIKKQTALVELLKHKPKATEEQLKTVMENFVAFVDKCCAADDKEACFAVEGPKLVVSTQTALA

- binding to BSA [1]: does not bind
- binding to the captured FAP [2]: binds less efficiently
- EC50 to the directly coated FAP peptides mixture (cFAP) [3]: did not show any binding
- colorimetric ELISA signal against FAP versus panel of unrelated human antigens [4]: significantly greater
- binding to the directly coated FAP [5]: binds less efficiently
B1: NI-206.20A8: human-derived recombinant anti-FAP antibody; VH SEQ ID NO: 45, VL SEQ ID NO: 47 (antibody, listed as Homo sapiens, V domains shown)
VH: EVQLVESGGGLVQPGGSLKLSCAGSGLDLSASAVHWVRQASGKGLEWIGRIRSKPNHYATTYLASVRGRFILSRDDSENTAYLQMNSLRTEDTAVYYCRIGILNSDHWGRGTLVTVSS
VL: QSVLTQPPSASGTPGQTVIISCSGSSSNLGRKTLNWYQQLPGAAPKLLIFKNDQRASGVPDRFSASKSGTSASLTISGLQSDDEADYYCGTWDDSLDNWVFGGGTKVTVL
